Reference: patent publication US20100105876A1, “Method for the oligomerisation of peptides” (priority 1996, published 2010)
Bridge positions count the residues as written; N and C are the ends. Ends that are not written are not given here.

Legend:
[1] = target: Pentabody Pab-S (peptide S - camel Ig hinge - modified COMP pentamerization domain - 6xHis, homopentamer) (UniProt P35444); assay: soluble BCL1 IgM competing the binding of Pab-S to BCL1 cells
BCL1 IgM idiotype = assay: RIA competition on plastic: inhibition of 125I labeled B1 IgG binding to coated BCL1 IgM; set-up: species or system mouse
Description: RIA competition on plastic. Polyvinil 96-well plates are coated with BCL1 IgM at 3 μg/ml in PBS for 16 h at 4° C. and blocked with 2% MPBS for 1 h at 37° C. Different amounts of peptides are incubated with 10 nCi of ^125I labeled B1 IgG for 1 h at 37° C. The wells are washed with PBS containing 0.1% of Tween-20 and the amounts of radioactivity retained is measured with an automated multichannel Cobra II γ-counter.
Synthetic peptides corresponding to the selected sequences are prepared as outlined in Table 1. Cysteins containing peptide S is completely oxidized on air loosing two hydrogen atoms, as shown by Mass Spectroscopy, which is consistent with the cyclization of the peptide. All synthetic peptides are tested for binding inhibition of ^125I labeled B1 IgG to BCL1 IgM coated on plastic. The D and the S peptides inhibit binding with an IC50 of about 60 μM and 200 μM, respectively. No inhibition is seen with peptide F up to 2 mM, which is used, thereafter, as a negative control.
However, since spatial arrangement of target molecule on the surface may influence multivalent binding, the equilibrium binding parameters of Pab-S are determined directly on live BCL1 cells, which represent a more relevant biological surface. Purified Pab-S is labeled with ^125I and is shown to bind to BCL1 idiotype on the cell surface. […]

[2] = target: BCL1 soluble IgM (idiotype-bearing IgM purified from the serum of a mouse carrying the BCL1 B-cell lymphoma) (mouse); assay: RIA competition: peptide against 125I B1 IgG on BCL1 IgM coated on plastic

Chain of UniProt P35444 (P35444 other isoform, or with tags, fused parts or gaps): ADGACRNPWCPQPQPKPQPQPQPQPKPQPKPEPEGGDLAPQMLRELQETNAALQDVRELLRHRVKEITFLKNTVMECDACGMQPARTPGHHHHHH

For “BCL1 soluble IgM (idiotype-bearing IgM purified from the serum of a mouse carrying the BCL1 B-cell lymphoma) (antibody)”, the concentration for 80% displacement [1] was 100 nM.

With SVWRWLPYDKYE the IC50 (BCL1 IgM idiotype; synthetic peptides, BCL1 IgM coated on plastic) was ~60 µM.

“peptide F: Synthetic peptide, first ten amino acids of the sequence selected from the Fisch library (SEQ ID 3); negative control (TAAGLCEFDQ; Synthetic peptide ligand specific for mouse BCL1 idiotype selected from peptide libraries dispalyed on filamentous bacteriophage displaying random hexapeptides or decapeptides)” was tested, and the “inhibition of 125I labeled B1 IgG binding to BCL1 IgM coated on plastic” value (BCL1 IgM idiotype; up to 2 mM peptide) was “No inhibition”.

Molecule ADGACRNPWC (disulfide 5-10 (inferred)) [synthetic peptide S (selected from the Smith library, oxidized/cyclized)] has an IC50 [2] of 200 µM.

SVWRWLPYDKYE [synthetic peptide D (selected from the Doorbar library)] gave an IC50 [2] of 60 µM.
